{
  "source": "patent US20190062438A1",
  "about": "(CSL, published 2019)",
  "data": [
    {"biological_target": "T1, human CD131 (human, UniProt P32927 17-897)", "T1 sequence": "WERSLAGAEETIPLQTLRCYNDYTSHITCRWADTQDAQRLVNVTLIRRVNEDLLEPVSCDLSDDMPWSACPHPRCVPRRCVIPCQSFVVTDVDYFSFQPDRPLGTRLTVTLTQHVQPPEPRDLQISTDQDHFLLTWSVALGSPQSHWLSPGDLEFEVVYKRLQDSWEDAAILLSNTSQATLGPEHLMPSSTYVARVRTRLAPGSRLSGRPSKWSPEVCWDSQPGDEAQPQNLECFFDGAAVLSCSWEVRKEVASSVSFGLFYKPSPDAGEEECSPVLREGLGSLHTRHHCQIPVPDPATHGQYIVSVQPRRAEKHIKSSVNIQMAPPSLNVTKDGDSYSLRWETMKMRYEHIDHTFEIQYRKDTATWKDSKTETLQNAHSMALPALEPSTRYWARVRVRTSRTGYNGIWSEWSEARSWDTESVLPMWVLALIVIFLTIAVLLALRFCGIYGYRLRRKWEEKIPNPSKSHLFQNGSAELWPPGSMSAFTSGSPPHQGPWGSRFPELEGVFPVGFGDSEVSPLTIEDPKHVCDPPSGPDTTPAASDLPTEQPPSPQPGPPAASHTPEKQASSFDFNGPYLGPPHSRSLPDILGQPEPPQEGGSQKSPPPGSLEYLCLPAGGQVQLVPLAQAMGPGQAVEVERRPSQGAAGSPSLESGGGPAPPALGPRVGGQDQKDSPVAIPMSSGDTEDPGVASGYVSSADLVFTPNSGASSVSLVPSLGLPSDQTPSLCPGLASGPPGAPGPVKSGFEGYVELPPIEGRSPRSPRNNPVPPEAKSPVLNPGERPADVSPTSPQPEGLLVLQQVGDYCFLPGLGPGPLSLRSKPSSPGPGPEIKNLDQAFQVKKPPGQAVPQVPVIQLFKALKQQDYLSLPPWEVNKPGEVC", "assay": "cell-based or functional assay", "units": {"IC50 GM-CSF, TF-1 proliferation": "nM"}, "values": [
      {"binder": "9A2-VR40 (antibody, V domains shown) VH: EVQLLESGGGLVQPGGSLRLSCAASGFTFSHYHMLWVRQAPGKGLEWVSSINGYGIQTYYADSVKGRFTISRDNSKNTLYLQMNSLRAEDTAVYYCARFYDSFFDIWGQGTMVTVSS VL: DIQMTQSPSSVSASVGDRVTITCRASQGISSWLAWYQQKPGKAPKLLIYAASSLQSGVPSRFSGSGSGTDFTLTISSLQPEDFATYYCQQANSFPITFGQGTRLEIKR", "IC50 GM-CSF, TF-1 proliferation": 5.7},
      {"binder": "9A2-VR46 (antibody, V domains shown) VH: EVQLLESGGGLVQPGGSLRLSCAASGFTFSHYHMLWVRQAPGKGLEWVSSIRSSGGFTYYADSVKGRFTISRDNSKNTLYLQMNSLRAEDTAVYYCARFYSDHFREWGQGTMVTVSS VL: DIQMTQSPSSVSASVGDRVTITCRASQGISSWLAWYQQKPGKAPKLLIYAASSLQSGVPSRFSGSGSGTDFTLTISSLQPEDFATYYCQQANSFPITFGQGTRLEIKR", "IC50 GM-CSF, TF-1 proliferation": 23.4},
      {"binder": "9A2-VR3 (antibody, V domains shown) VH: EVQLLESGGGLVQPGGSLRLSCAASGFTFSHYHMLWVRQAPGKGLEWVSSIRSSGGFTYYADSVKGRFTISRDNSKNTLYLQMNSLRAEDTAVYYCARFYDSFFDIWGQGTMVTVSS VL: DIQMTQSPSSVSASVGDRVTITCRASQGLRPFVNWYQQKPGKAPKLLIYAASSLQSGVPSRFSGSGSGTDFTLTISSLQPEDFATYYCQQANSFPITFGQGTRLEIKR", "IC50 GM-CSF, TF-1 proliferation": 101},
      {"binder": "9A2-VR49 (antibody, V domains shown) VH: EVQLLESGGGLVQPGGSLRLSCAASGFTFSHYHMLWVRQAPGKGLEWVSSIRSSGGFTYYADSVKGRFTISRDNSKNTLYLQMNSLRAEDTAVYYCARFYSDHFNPWGQGTMVTVSS VL: DIQMTQSPSSVSASVGDRVTITCRASQGISSWLAWYQQKPGKAPKLLIYAASSLQSGVPSRFSGSGSGTDFTLTISSLQPEDFATYYCQQANSFPITFGQGTRLEIKR", "IC50 GM-CSF, TF-1 proliferation": 23.4},
      {"binder": "9A2-VR43 (antibody, V domains shown) VH: EVQLLESGGGLVQPGGSLRLSCAASGFTFSHYHMLWVRQAPGKGLEWVSSIRSSGGFTYYADSVKGRFTISRDNSKNTLYLQMNSLRAEDTAVYYCARFYSDHFDIWGQGTMVTVSS VL: DIQMTQSPSSVSASVGDRVTITCRASQGISSWLAWYQQKPGKAPKLLIYAASSLQSGVPSRFSGSGSGTDFTLTISSLQPEDFATYYCQQANSFPITFGQGTRLEIKR", "IC50 GM-CSF, TF-1 proliferation": 53.7},
      {"binder": "9A2-VR44 (antibody, V domains shown) VH: EVQLLESGGGLVQPGGSLRLSCAASGFTFSHYHMLWVRQAPGKGLEWVSSIRSSGGFTYYADSVKGRFTISRDNSKNTLYLQMNSLRAEDTAVYYCARFYDSHFDIWGQGTMVTVSS VL: DIQMTQSPSSVSASVGDRVTITCRASQGISSWLAWYQQKPGKAPKLLIYAASSLQSGVPSRFSGSGSGTDFTLTISSLQPEDFATYYCQQANSFPITFGQGTRLEIKR", "IC50 GM-CSF, TF-1 proliferation": 36.4},
      {"binder": "9A2-VR42 (antibody, V domains shown) VH: EVQLLESGGGLVQPGGSLRLSCAASGFTFSHYHMLWVRQAPGKGLEWVSSIGGDIRQTYYADSVKGRFTISRDNSKNTLYLQMNSLRAEDTAVYYCARFYDSFFDIWGQGTMVTVSS VL: DIQMTQSPSSVSASVGDRVTITCRASQGISSWLAWYQQKPGKAPKLLIYAASSLQSGVPSRFSGSGSGTDFTLTISSLQPEDFATYYCQQANSFPITFGQGTRLEIKR", "IC50 GM-CSF, TF-1 proliferation": 54.7},
      {"binder": "9A2-VR48 (antibody, V domains shown) VH: EVQLLESGGGLVQPGGSLRLSCAASGFTFSHYHMLWVRQAPGKGLEWVSSIRSSGGFTYYADSVKGRFTISRDNSKNTLYLQMNSLRAEDTAVYYCARFYSDHFKPWGQGTMVTVSS VL: DIQMTQSPSSVSASVGDRVTITCRASQGISSWLAWYQQKPGKAPKLLIYAASSLQSGVPSRFSGSGSGTDFTLTISSLQPEDFATYYCQQANSFPITFGQGTRLEIKR", "IC50 GM-CSF, TF-1 proliferation": 11.7},
      {"binder": "9A2-VR4 (antibody, V domains shown) VH: EVQLLESGGGLVQPGGSLRLSCAASGFTFSHYHMLWVRQAPGKGLEWVSSIRSSGGFTYYADSVKGRFTISRDNSKNTLYLQMNSLRAEDTAVYYCARFYDSFFDIWGQGTMVTVSS VL: DIQMTQSPSSVSASVGDRVTITCRASQGIRPFVDWYQQKPGKAPKLLIYAASSLQSGVPSRFSGSGSGTDFTLTISSLQPEDFATYYCQQANSFPITFGQGTRLEIKR", "IC50 GM-CSF, TF-1 proliferation": 122},
      {"binder": "9A2-VR1 (antibody, V domains shown) VH: EVQLLESGGGLVQPGGSLRLSCAASGFTFSHYHMLWVRQAPGKGLEWVSSIRSSGGFTYYADSVKGRFTISRDNSKNTLYLQMNSLRAEDTAVYYCARFYDSFFDIWGQGTMVTVSS VL: DIQMTQSPSSVSASVGDRVTITCRASQGIRPFMAWYQQKPGKAPKLLIYAASSLQSGVPSRFSGSGSGTDFTLTISSLQPEDFATYYCQQANSFPITFGQGTRLEIKR", "IC50 GM-CSF, TF-1 proliferation": 294},
      {"binder": "9A2-VR2 (antibody, V domains shown) VH: EVQLLESGGGLVQPGGSLRLSCAASGFTFSHYHMLWVRQAPGKGLEWVSSIRSSGGFTYYADSVKGRFTISRDNSKNTLYLQMNSLRAEDTAVYYCARFYDSFFDIWGQGTMVTVSS VL: DIQMTQSPSSVSASVGDRVTITCRASQGQRPFVSWYQQKPGKAPKLLIYAASSLQSGVPSRFSGSGSGTDFTLTISSLQPEDFATYYCQQANSFPITFGQGTRLEIKR", "IC50 GM-CSF, TF-1 proliferation": 444},
      {"binder": "9A2-VR45 (antibody, V domains shown) VH: EVQLLESGGGLVQPGGSLRLSCAASGFTFSHYHMLWVRQAPGKGLEWVSSIRSSGGFTYYADSVKGRFTISRDNSKNTLYLQMNSLRAEDTAVYYCARFYSDNFDIWGQGTMVTVSS VL: DIQMTQSPSSVSASVGDRVTITCRASQGISSWLAWYQQKPGKAPKLLIYAASSLQSGVPSRFSGSGSGTDFTLTISSLQPEDFATYYCQQANSFPITFGQGTRLEIKR", "IC50 GM-CSF, TF-1 proliferation": 88.7},
      {"binder": "9A2-VR47 (antibody, V domains shown) VH: EVQLLESGGGLVQPGGSLRLSCAASGFTFSHYHMLWVRQAPGKGLEWVSSIRSSGGFTYYADSVKGRFTISRDNSKNTLYLQMNSLRAEDTAVYYCARFYSDHFSPWGQGTMVTVSS VL: DIQMTQSPSSVSASVGDRVTITCRASQGISSWLAWYQQKPGKAPKLLIYAASSLQSGVPSRFSGSGSGTDFTLTISSLQPEDFATYYCQQANSFPITFGQGTRLEIKR", "IC50 GM-CSF, TF-1 proliferation": 27.2},
      {"binder": "9A2-VR41 (antibody, V domains shown) VH: EVQLLESGGGLVQPGGSLRLSCAASGFTFSHYHMLWVRQAPGKGLEWVSSINGKGWTTYYADSVKGRFTISRDNSKNTLYLQMNSLRAEDTAVYYCARFYDSFFDIWGQGTMVTVSS VL: DIQMTQSPSSVSASVGDRVTITCRASQGISSWLAWYQQKPGKAPKLLIYAASSLQSGVPSRFSGSGSGTDFTLTISSLQPEDFATYYCQQANSFPITFGQGTRLEIKR", "IC50 GM-CSF, TF-1 proliferation": 7},
      {"binder": "9A2-VR50 (antibody, V domains shown) VH: EVQLLESGGGLVQPGGSLRLSCAASGFTFSHYHMLWVRQAPGKGLEWVSSIRSSGGFTYYADSVKGRFTISRDNSKNTLYLQMNSLRAEDTAVYYCARFYSDHFAPWGQGTMVTVSS VL: DIQMTQSPSSVSASVGDRVTITCRASQGISSWLAWYQQKPGKAPKLLIYAASSLQSGVPSRFSGSGSGTDFTLTISSLQPEDFATYYCQQANSFPITFGQGTRLEIKR", "IC50 GM-CSF, TF-1 proliferation": 46.5}
    ]}
  ]
}
